Test results reported in US20170260508A1 (FRED HUTCHINSON CANCER RESEARCH CENTER, published 2017).
Changes are numbered by the printed parent chain. In names and notes the source's numbering stands.

B1: Angptl2-FLAG, full-length human Angptl2 secreted from transfected 293T cells (ligand)
chain: QEDGFEGTEEGSPREFIYLNRYKRAGESQDKCTYTFIVPQQRVTGAICVNSKEPEVLLENRVHKQELELLNNELLKQKRQIETLQQLVEVDGGIVSEVKLLRKESRNMNSRVTQLYMQLLHEIIRKRDNALELSQLENRILNQTADMLQLASKYKDLEHKYQHLATLAHNQSEIIAQLEEHCQRVPSARPVPQPPPAAPPRVYQPPTYNRIINQISTNEIQSDQNLKVLPPPLPTMPTLTSLPSSTDKPSGPWRDCLQALEDGHDTSSIYLVKPENTNRLMQVWCDQRHDPGGWTVIQRRLDGSVNFFRNWETYKQGFGNIDGEYWLGLENIYWLTNQGNYKLLVTMEDWSGRKVFAEYASFRLEPESEYYKLRLGRYHGNAGDSFTWHNGKQFTTLDRDHDVYTGNCAHYQKGGWWYNACAHSNLNGVWYRGGHYRSRYQDGVYWAEFRGGSYSLKKVVMMIRPNPNTFH
notes: Runs partly as a high molecular weight (>250 kD) multimer; also called full-length Angptl2; FLAG-tagged Angptl2; not shown: FLAG tag at the C terminus
B2: LILRB2 H92S on 293T cells (receptor)
chain: QTGTIPKPTLWAEPDSVITQGSPVTLSCQGSLEAQEYRLYREKKSASWITRIRPELVKNGQFHIPSITWESTGRYGCQYYSRARWSELSDPLVLVMTGAYPKPTLSAQPSPVVTSGGRVTLQCESQVAFGGFILCKEGEEEHPQCLNSQPHARGSSRAIFSVGPVSPNRRWSHRCYGYDLNSPYVWSSPSDLLELLVPGVSKKPSLSVQPGPVVAPGESLTLQCVSDVGYDRFVLYKEGERDLRQLPGRQPQAGLSQANFTLGPVSRSYGGQYRCYGAHNLSSECSAPSDPLDILITGQIRGTPFISVQPGPTVASGENVTLLCQSWRQFHTFLLTKAGAADAPLRLRSIHEYPKYQAEFPMSPVTSAHAGTYRCYGSLNSDPYLLSHPSEPLELVVSGPSMGSSPPPTGPISTPGPEDQPLTPTGSDPQSGLGRHLGVVIGILVAVVLLLLLLLLLFLILRHRRQGKHWTSTQRKADFQHPAGAVGPEPTDRGLQWRSSPAADAQEENLYAAVKDTQPEDGVEMDTRAAASEAPQDVTYAQLHSLTLRRKATEPPPSQEREPPAEPSIYATLAIH
B3: LILRB2 T93A on 293T cells (receptor)
chain: B2 chain with S71H, T72A
B4: full-length LILRB2 G94D on 293T cells (receptor)
chain: B2 chain with S71H, G73D
notes: also called single mutation in G94
B5: Angptl5-FLAG, secreted (ligand)
chain: NCVHHSTDSSVVNIVEDGSNAKDESKSNDTVCKEDCEESCDVKTKITREEKHFMCRNLQNSIVSYTRSTKKLLRNMMDEQQASLDYLSNQVNELMNRVLLLTTEVFRKQLDPFPHRPVQSHGLDCTDIKDTIGSVTKTPSGLYIIHPEGSSYPFEVMCDMDYRGGGWTVIQKRIDGIIDFQRLWCDYLDGFGDLLGEFWLGLKKIFYIVNQKNTSFMLYVALESEDDTLAYASYDNFWLEDETRFFKMHLGRYSGNAGDAFRGLKKEDNQNAMPFSTSDVDNDGCRPACLVNGQSVKSCSHLHNKTGWWFNECGLANLNGIHHFSGKLLATGIQWGTWTKNNSPVKIKSVSMKIRRMYNPYFK
notes: read as Angptl5; not shown: FLAG tag at the C terminus
B6: full-length LILRB2 R95E on 293T cells (receptor)
chain: B2 chain with S71H, R74E
notes: also called single mutation in R95
B7: LILRB2 Q99R on 293T cells (receptor)
chain: B2 chain with S71H, Q78R
B8: LILRB2 G392D on 293T cells (receptor)
chain: B2 chain with S71H, G371D
B9: LILRB2 T393E on 293T cells (receptor)
chain: B2 chain with S71H, T372E
B10: LILRB2 MHC-S1 mutant (R59A/Y61A) on 293T cells (receptor)
chain: B2 chain with R38A, Y40A, S71H
B11: LILRB2 Ig1 domain expressed on 293T cells (receptor)
chain: GTIPKPTLWAEPDSVITQGSPVTLSCQGSLEAQEYRLYREKKSASWITRIRPELVKNGQFHIPSITWEHTGRYGCQYYSRARWSELSDPLVLVMTG
notes: The range is stated for the chimeric reporter constructs; also called 1st Ig domain
B12: fibrinogen-like domain (FBN) of Angptl2, FLAG-tagged (ligand)
chain: DKPSGPWRDCLQALEDGHDTSSIYLVKPENTNRLMQVWCDQRHDPGGWTVIQRRLDGSVNFFRNWETYKQGFGNIDGEYWLGLENIYWLTNQGNYKLLVTMEDWSGRKVFAEYASFRLEPESEYYKLRLGRYHGNAGDSFTWHNGKQFTTLDRDHDVYTGNCAHYQKGGWWYNACAHSNLNGVWYRGGHYRSRYQDGVYWAEFRGGSYSLKKVVMMIRPNPNTFH
notes: the whole Angptl2 entry is named; Migrates as a 37 kD monomer; also called FBN domain; fibrinogen domain; not shown: FLAG tag
B13: LILRB2 Ig2 domain expressed on 293T cells (receptor)
chain: AYPKPTLSAQPSPVVTSGGRVTLQCESQVAFGGFILCKEGEEEHPQCLNSQPHARGSSRAIFSVGPVSPNRRWSHRCYGYDLNSPYVWSSPSDLLELLVP
notes: The range is stated for the chimeric reporter constructs; also called 2nd Ig domain
B14: LILRB2 Ig3 domain expressed on 293T cells (receptor)
chain: VSKKPSLSVQPGPVVAPGESLTLQCVSDVGYDRFVLYKEGERDLRQLPGRQPQAGLSQANFTLGPVSRSYGGQYRCYGAHNLSSECSAPSDPLDILITGQ
notes: The range is stated for the chimeric reporter constructs; also called 3rd Ig domain
B15: LILRB2 Ig4 domain expressed on 293T cells (receptor)
chain: IRGTPFISVQPGPTVASGENVTLLCQSWRQFHTFLLTKAGAADAPLRLRSIHEYPKYQAEFPMSPVTSAHAGTYRCYGSLNSDPYLLSHPSEPLELVVSGPSMGSSPPPTGPISTPGPEDQPLTPTGSDPQSGLGRHL
notes: The range is stated for the chimeric reporter constructs; also called 4th Ig domain
B16: full-length LILRB2 Y96A/G392D on 293T cells (receptor)
chain: B2 chain with S71H, Y75A, G371D
notes: also called Y96A combined with G392D
B17: full-length LILRB2 Y96A/Y394A on 293T cells (receptor)
chain: B2 chain with S71H, Y75A, Y373A
notes: also called Y96A combined with Y394A

Assays:
[1] = molecular target: T1, full-length LILRB2 Y96A on 293T cells (human, UniProt Q8N423 22-597); assay: flow cytometry, Angptl2 on 293T cells expressing mutant LILRB2
T1 construct: also called single mutation in Y96
Experimental: (§1) Flow cytometry. […] Cells were harvested at 48 h for analysis. […] Anti-LILRB2-PE was used as indicated. Cells were analyzed using either a FACSCalibur or FACSAria instrument (Becton Dickinson).

[2] = molecular target: B4; assay: as above
Experimental: as §1

[3] = molecular target: T2, full-length LILRB2 with mutations in AA 92-100 (Mut-8 aa) (human); assay: as above
T2 construct: also called the full-length LILRB2 with the same mutation
Experimental: as §1

[4] = molecular target: B6; assay: as above
Experimental: as §1

[5] = molecular target: B1; assay: flow cytometry, ligand on mutant LILRB2 (FIG. 6G)
Experimental: as §1

[6] = molecular target: T3, human LILRB2, wild-type full-length, on cells (human, UniProt Q8N423 22-597); assay: flow cytometry, LILRB2 on 293T cells
T3 construct: the assay field says which; also called WT LILRB2; full-length LILRB2

[7] = molecular target: B1; assay: flow cytometry, Angptl2 on 293T cells expressing the domain
Experimental: as §1
LILRB2 contains four extracellular immunoglobulin (Ig)-like domains. Takai et al., J Biomed Biotechnol. 2011; 2011:275302. […] To test this hypothesis, a number of domain and site-specific mutations of LILRB2 were generated for the flow cytometry-based cell surface ligand binding assay and chimeric reporter assay.

[8] = molecular target: T3, human LILRB2, wild-type full-length, on …; assay: flow cytometry, human cord blood mononuclear cells, anti-FLAG-APC and anti-human LILRB2-PE
Experimental: as §1

[9] = molecular target: B1; assay: flow cytometry, Angptl2 on 293T cells expressing the mutant
Experimental: as §1

Q: With B1 as the binder, how does the “reduction of Angptl2 binding” value [1] read?
A: 50%

Q: And the “reduction of Angptl2 binding” value [2]?
A: 50%

Q: And the “decrease of Angptl2 binding relative to the wild-type protein” value [3]?
A: > 50%

Q: And the “reduction of Angptl2 binding” value [4]?
A: 50%

Q: Does B2 bind [5]?
A: binds

Q: Does B3 bind [5]?
A: binds

Q: Does B4 bind [5]?
A: binds

Q: Does B5 bind [6]?
A: binds

Q: Does B6 bind [5]?
A: binds

Q: Does B7 bind [5]?
A: binds

Q: Does B8 bind [5]?
A: binds

Q: Does B9 bind [5]?
A: binds

Q: Does B10 bind [5]?
A: binds

Q: Does B11 bind [7]?
A: no binding

Q: Does B12 bind [8]?
A: no binding

Q: Does B13 bind [7]?
A: no binding

Q: Does B14 bind [7]?
A: no binding

Q: Does B15 bind [7]?
A: no binding

Q: Does B16 bind [9]?
A: no binding

Q: Does B17 bind [9]?
A: no binding
